Test results taken from US20220220508, “ENGINEERED CASX SYSTEMS” (Scribe Therapeutics Inc., published 2022).
Positions count from the first letter of the chain named.

T1: CasX 488
T1 chain: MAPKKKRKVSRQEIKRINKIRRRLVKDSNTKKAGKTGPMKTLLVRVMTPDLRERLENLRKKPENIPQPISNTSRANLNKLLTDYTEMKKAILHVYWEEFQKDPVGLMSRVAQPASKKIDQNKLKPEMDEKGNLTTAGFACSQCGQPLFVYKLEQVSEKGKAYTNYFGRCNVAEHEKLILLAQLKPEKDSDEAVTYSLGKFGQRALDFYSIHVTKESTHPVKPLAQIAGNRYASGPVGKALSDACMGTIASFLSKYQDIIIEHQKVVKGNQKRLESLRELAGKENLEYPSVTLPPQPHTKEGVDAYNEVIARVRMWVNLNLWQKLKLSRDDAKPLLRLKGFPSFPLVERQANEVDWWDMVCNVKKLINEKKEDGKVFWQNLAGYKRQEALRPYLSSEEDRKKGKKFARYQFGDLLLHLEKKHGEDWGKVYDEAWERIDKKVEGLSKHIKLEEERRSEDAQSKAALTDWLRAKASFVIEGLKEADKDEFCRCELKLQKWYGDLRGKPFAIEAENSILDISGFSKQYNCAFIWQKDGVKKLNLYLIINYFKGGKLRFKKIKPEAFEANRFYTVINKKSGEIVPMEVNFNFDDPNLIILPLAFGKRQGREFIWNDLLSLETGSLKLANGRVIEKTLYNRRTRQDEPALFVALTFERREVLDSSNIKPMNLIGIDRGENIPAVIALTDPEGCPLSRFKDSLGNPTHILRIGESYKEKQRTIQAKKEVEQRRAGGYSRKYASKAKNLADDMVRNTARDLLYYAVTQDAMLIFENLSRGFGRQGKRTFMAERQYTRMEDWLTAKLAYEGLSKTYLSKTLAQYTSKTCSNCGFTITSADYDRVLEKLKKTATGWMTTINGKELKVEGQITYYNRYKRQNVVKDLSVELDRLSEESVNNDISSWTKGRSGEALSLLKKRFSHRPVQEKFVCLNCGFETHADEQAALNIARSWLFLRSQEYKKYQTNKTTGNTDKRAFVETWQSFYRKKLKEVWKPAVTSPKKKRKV

T2: CasX 491
T2 chain: T1 chain with F410L, I669V

T3: CasX 438 (in cells) (Planctomycetes)
T3 chain: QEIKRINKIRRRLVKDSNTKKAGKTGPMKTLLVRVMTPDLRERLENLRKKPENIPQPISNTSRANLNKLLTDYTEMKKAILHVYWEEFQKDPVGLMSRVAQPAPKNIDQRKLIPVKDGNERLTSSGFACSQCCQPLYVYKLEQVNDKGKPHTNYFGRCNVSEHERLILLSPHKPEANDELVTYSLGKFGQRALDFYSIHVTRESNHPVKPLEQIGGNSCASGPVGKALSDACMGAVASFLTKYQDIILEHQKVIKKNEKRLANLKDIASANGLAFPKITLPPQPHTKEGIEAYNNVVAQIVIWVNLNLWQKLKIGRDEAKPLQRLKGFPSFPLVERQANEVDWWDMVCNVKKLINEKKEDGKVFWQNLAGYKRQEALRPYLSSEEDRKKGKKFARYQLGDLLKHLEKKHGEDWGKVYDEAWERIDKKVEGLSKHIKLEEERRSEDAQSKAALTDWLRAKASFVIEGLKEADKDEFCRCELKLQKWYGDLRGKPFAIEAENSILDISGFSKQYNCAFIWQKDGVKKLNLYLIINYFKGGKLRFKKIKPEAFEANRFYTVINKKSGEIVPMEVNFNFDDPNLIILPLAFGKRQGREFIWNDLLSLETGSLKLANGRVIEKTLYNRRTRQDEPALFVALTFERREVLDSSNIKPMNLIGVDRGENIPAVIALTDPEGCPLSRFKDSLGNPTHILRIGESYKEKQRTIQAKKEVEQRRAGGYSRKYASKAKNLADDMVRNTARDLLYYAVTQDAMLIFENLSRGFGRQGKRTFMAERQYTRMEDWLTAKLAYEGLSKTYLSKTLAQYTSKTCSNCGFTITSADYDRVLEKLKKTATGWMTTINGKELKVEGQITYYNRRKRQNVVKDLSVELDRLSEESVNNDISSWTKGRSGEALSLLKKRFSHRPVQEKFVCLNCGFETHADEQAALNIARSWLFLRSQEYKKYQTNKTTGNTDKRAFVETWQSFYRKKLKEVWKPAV

B1: sgRNA 174.7.37 ; 7.37 TTC PAM target (ssRNA ; dsDNA)
RNA: ACUGGCGCUUUUAUCUGAUUACUUUGAGAGCCAUCACCAGCGACUAUGUCGUAGUGGGUAAAGCUCCCUCUUCGGAGGGAGCAUCAAAGGGCCGAGAUGUCUCGCUCCG
DNA 1: TGAAGCTGACAGCATTCGGGCCGAGATGTCTCGCTCCGTGGCCTTAGCTGTGCTCGCGCT
DNA 2: AGCGCGAGCACAGCTAAGGCCACGGAGCGAGACATCTCGGCCCGAATGCTGTCAGCTTCA
B2: scaffold 174 + spacer 4.76 ; EGFP E6/4.76 target (ssRNA ; dsDNA)
RNA: ACUGGCGCUUUUAUCUGAUUACUUUGAGAGCCAUCACCAGCGACUAUGUCGUAGUGGGUAAAGCUCCCUCUUCGGAGGGAGCAUCAAAGUGUGGUCGGGGUAGCGGCUG
DNA 1: TGTGGTCGGGGTAGCGGCTG
DNA 2: CAGCCGCTACCCCGACCACA
B3: scaffold 174 + spacer 4.77 ; EGFP E7/4.77 target (ssRNA ; dsDNA)
RNA: ACUGGCGCUUUUAUCUGAUUACUUUGAGAGCCAUCACCAGCGACUAUGUCGUAGUGGGUAAAGCUCCCUCUUCGGAGGGAGCAUCAAAGUCAAGUCCGCCAUGCCCGAA
DNA 1: TCAAGTCCGCCATGCCCGAA
DNA 2: TTCGGGCATGGCGGACTTGA

What was measured:
CasX 438 = CasX 438 (Planctomycetes); assay: cleavage_in_vitro; kcleave; TTC PAM; details: tags: N-terminal SV40 NLS, C-terminal NLS, TEV site and twin Strep tag; label: fluorescent
Method: (§1) In vitro cleavage assays were performed essentially as described in Example 19, using CasX 2 (SED ID NO:2), CasX 119, and CasX 438 complexed with single guide 174 with spacer 7.37 targeted against B2M. Fluorescently labeled dsDNA targets that would be complementary with a 7.37 spacer and either a ITC, CTC, CTC, or ATC PAM were used (The DNA sequences used to generate each dsDNA substrate are shown in Table 29. The PAM sequences for each are bolded. TS—target strand. NTS—Non-target strand). Target DNA was incubated with a 20-fold excess of the indicated RNP and the amount of cleaved target was determined at the indicated. time points. The monophasic fit of the combined replicates is shown. During the assay, samples were taken at 0.25, 0.5, 1, 2, 5, 10, 30, and 60 minutes. Gels were imaged with an Amersham Typhoon and quantified using the IQTL 8,2 software. Apparent first-order rate constants for non-target strand cleavage (kcleave) were determined for each Casx:sgRNA complex on each target. Rate constants for targets with non-TTC PAM were compared to the TIC PAM target to determine whether the relative preference for each PAM was altered for a given CasX variant. The results are shown in FIG. 73 (the monophasic fit of the combined replicates is shown) and Table 30. […]

[1] = biological target: CasX 119 (L379R+A708K+[P793]) (Planctomycetes); assay: cleavage_in_vitro; kcleave; TTC PAM; details: tags: N-terminal SV40 NLS, C-terminal NLS, TEV site and twin Strep tag; label: fluorescent
Method: as §1

CasX 488 = biological target: T1, CasX 488; assay: cell_activity; lentiviral iGFP editing; TTC PAM
CasX 491 = biological target: T2, CasX 491; assay: cell_activity; lentiviral iGFP editing; TTC PAM
CasX 438 (in cells) = biological target: T3, CasX 438 (in cells); assay: cell_activity; lentiviral iGFP editing; TTC PAM

Chain of CasX 119 (L379R+A708K+[P793]) (Planctomycetes) (chain, as listed by the source L379R A708K L379R A708K): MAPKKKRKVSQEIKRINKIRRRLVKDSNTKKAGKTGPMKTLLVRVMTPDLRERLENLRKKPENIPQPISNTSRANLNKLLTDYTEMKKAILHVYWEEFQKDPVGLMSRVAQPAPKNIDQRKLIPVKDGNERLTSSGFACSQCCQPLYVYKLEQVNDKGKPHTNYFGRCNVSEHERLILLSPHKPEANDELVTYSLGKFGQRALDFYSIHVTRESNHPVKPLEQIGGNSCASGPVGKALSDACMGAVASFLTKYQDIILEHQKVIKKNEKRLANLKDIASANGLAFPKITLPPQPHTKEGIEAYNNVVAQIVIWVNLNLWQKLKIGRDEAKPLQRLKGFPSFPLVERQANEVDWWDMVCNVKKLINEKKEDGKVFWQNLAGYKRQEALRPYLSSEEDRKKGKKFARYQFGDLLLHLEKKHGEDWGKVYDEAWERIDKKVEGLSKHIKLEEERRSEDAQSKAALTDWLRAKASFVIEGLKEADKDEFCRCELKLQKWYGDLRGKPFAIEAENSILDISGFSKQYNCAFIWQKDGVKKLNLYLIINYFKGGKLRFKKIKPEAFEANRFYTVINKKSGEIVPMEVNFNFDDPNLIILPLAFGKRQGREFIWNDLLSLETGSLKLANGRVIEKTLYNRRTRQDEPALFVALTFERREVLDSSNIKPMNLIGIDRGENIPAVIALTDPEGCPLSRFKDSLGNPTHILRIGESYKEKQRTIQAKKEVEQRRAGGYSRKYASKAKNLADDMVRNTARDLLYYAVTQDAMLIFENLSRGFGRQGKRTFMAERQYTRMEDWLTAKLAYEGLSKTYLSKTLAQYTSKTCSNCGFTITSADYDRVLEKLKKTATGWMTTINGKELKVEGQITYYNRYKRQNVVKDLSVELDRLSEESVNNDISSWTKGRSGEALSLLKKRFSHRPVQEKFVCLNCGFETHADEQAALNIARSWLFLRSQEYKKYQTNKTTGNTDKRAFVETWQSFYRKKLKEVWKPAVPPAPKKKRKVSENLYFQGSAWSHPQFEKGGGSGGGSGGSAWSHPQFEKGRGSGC
Chain of CasX 438 (Planctomycetes) (chain, as listed by the source): as the sequence (chain, as listed by the source L379R A708K L379R A708K) above, with F408L, L413K, I667V, Y865R counted along it

Binder	activity (CasX 438)	activity [1]	binding signal (CasX 488)	binding signal (CasX 491)	binding signal (CasX 438 (in cells))
B1	4.94 min⁻¹	8.33 min⁻¹	–	–	–
B2	–	–	1.41 fold vs CasX 119	1.55 fold vs CasX 119	1.22 fold vs CasX 119
B3	–	–	2.43 fold vs CasX 119	3.03 fold vs CasX 119	–
